Assay results reported in patent US20240400708A1.

Columns and labels:
[1] = target: feline FcRn complex (FcRn-α subunit and β-microglobulin) (feline); assay: SPR (Biacore), FcRn on SA chip, pH 7.4
[2] = target: feline FcRn complex (FcRn-α subunit and β-microglobulin) (feline); assay: SPR (Biacore), FcRn on SA chip, pH 6

Binder	Kd [1]	Kd [2]
feline IgG1a mutant ID No. 252: S428M, S434F (antibody, part only; not given: variable domains and light chain, not shown: another chain or arm of the molecule) constant: ASTTAPSVFPLAPSCGTTSGATVALACLVLGYFPEPVTVSWNSGALTSGVHTFPAVLQASGLYSLSSMVTVPSSRWLSDTFTCNVAHPPSNTKVDKTVRKTDHPPGPKPCDCPKCPPPEMLGGPSIFIFPPKPKDTLSISRTPEVTCLVVDLGPDDSDVQITWFVDNTQVYTAKTSPREEQFNSTYRVVSVLPILHQDWLKGKEFKCKVNSKSLPSPIERTISKAKGQPHEPQVYVLPPAQEELSRNKVSVTCLIKSFHPPDIAVEWEITGQPEPENNYRTTPPQLDSDGTYFVYSKLSVDRSHWQRGNTYTCSVMHEALHFHHTQKSLTQSPGK	27.4 nM	0.19 nM
feline IgG1a mutant ID No. 276: S252R, S434R, Q311W (antibody, part only; not given: variable domains and light chain, not shown: another chain or arm of the molecule) constant: ASTTAPSVFPLAPSCGTTSGATVALACLVLGYFPEPVTVSWNSGALTSGVHTFPAVLQASGLYSLSSMVTVPSSRWLSDTFTCNVAHPPSNTKVDKTVRKTDHPPGPKPCDCPKCPPPEMLGGPSIFIFPPKPKDTLRISRTPEVTCLVVDLGPDDSDVQITWFVDNTQVYTAKTSPREEQFNSTYRVVSVLPILHWDWLKGKEFKCKVNSKSLPSPIERTISKAKGQPHEPQVYVLPPAQEELSRNKVSVTCLIKSFHPPDIAVEWEITGQPEPENNYRTTPPQLDSDGTYFVYSKLSVDRSHWQRGNTYTCSVSHEALHRHHTQKSLTQSPGK	14800 nM	28.7 nM
feline IgG1a mutant ID No. 270: S252F, S434W, Q311W (antibody, part only; not given: variable domains and light chain, not shown: another chain or arm of the molecule) constant: ASTTAPSVFPLAPSCGTTSGATVALACLVLGYFPEPVTVSWNSGALTSGVHTFPAVLQASGLYSLSSMVTVPSSRWLSDTFTCNVAHPPSNTKVDKTVRKTDHPPGPKPCDCPKCPPPEMLGGPSIFIFPPKPKDTLFISRTPEVTCLVVDLGPDDSDVQITWFVDNTQVYTAKTSPREEQFNSTYRVVSVLPILHWDWLKGKEFKCKVNSKSLPSPIERTISKAKGQPHEPQVYVLPPAQEELSRNKVSVTCLIKSFHPPDIAVEWEITGQPEPENNYRTTPPQLDSDGTYFVYSKLSVDRSHWQRGNTYTCSVSHEALHWHHTQKSLTQSPGK	2640 nM	3.68 nM
feline IgG1a mutant ID No. 257: S428M, S434Y (antibody, part only; not given: Variable domains, not shown: another chain or arm of the molecule) constant: ASTTAPSVFPLAPSCGTTSGATVALACLVLGYFPEPVTVSWNSGALTSGVHTFPAVLQASGLYSLSSMVTVPSSRWLSDTFTCNVAHPPSNTKVDKTVRKTDHPPGPKPCDCPKCPPPEMLGGPSIFIFPPKPKDTLSISRTPEVTCLVVDLGPDDSDVQITWFVDNTQVYTAKTSPREEQFNSTYRVVSVLPILHQDWLKGKEFKCKVNSKSLPSPIERTISKAKGQPHEPQVYVLPPAQEELSRNKVSVTCLIKSFHPPDIAVEWEITGQPEPENNYRTTPPQLDSDGTYFVYSKLSVDRSHWQRGNTYTCSVMHEALHYHHTQKSLTQSPGK	21.9 nM	0.264 nM
feline IgG1a mutant ID No. 266: Q311W, L314K, S434Y (antibody, part only; not given: Variable domains, not shown: another chain or arm of the molecule) constant: ASTTAPSVFPLAPSCGTTSGATVALACLVLGYFPEPVTVSWNSGALTSGVHTFPAVLQASGLYSLSSMVTVPSSRWLSDTFTCNVAHPPSNTKVDKTVRKTDHPPGPKPCDCPKCPPPEMLGGPSIFIFPPKPKDTLSISRTPEVTCLVVDLGPDDSDVQITWFVDNTQVYTAKTSPREEQFNSTYRVVSVLPILHWDWKKGKEFKCKVNSKSLPSPIERTISKAKGQPHEPQVYVLPPAQEELSRNKVSVTCLIKSFHPPDIAVEWEITGQPEPENNYRTTPPQLDSDGTYFVYSKLSVDRSHWQRGNTYTCSVSHEALHYHHTQKSLTQSPGK	388 nM	2.8 nM
feline IgG1a mutant ID No. 277: S252R, S434W (antibody, part only; not given: Variable domains, not shown: another chain or arm of the molecule) constant: ASTTAPSVFPLAPSCGTTSGATVALACLVLGYFPEPVTVSWNSGALTSGVHTFPAVLQASGLYSLSSMVTVPSSRWLSDTFTCNVAHPPSNTKVDKTVRKTDHPPGPKPCDCPKCPPPEMLGGPSIFIFPPKPKDTLRISRTPEVTCLVVDLGPDDSDVQITWFVDNTQVYTAKTSPREEQFNSTYRVVSVLPILHQDWLKGKEFKCKVNSKSLPSPIERTISKAKGQPHEPQVYVLPPAQEELSRNKVSVTCLIKSFHPPDIAVEWEITGQPEPENNYRTTPPQLDSDGTYFVYSKLSVDRSHWQRGNTYTCSVSHEALHWHHTQKSLTQSPGK	6600 nM	7.1 nM
feline IgG1a mutant ID No. 269: S252F, S434R, Q311W (antibody, part only; not given: Variable domains, not shown: another chain or arm of the molecule) constant: ASTTAPSVFPLAPSCGTTSGATVALACLVLGYFPEPVTVSWNSGALTSGVHTFPAVLQASGLYSLSSMVTVPSSRWLSDTFTCNVAHPPSNTKVDKTVRKTDHPPGPKPCDCPKCPPPEMLGGPSIFIFPPKPKDTLFISRTPEVTCLVVDLGPDDSDVQITWFVDNTQVYTAKTSPREEQFNSTYRVVSVLPILHWDWLKGKEFKCKVNSKSLPSPIERTISKAKGQPHEPQVYVLPPAQEELSRNKVSVTCLIKSFHPPDIAVEWEITGQPEPENNYRTTPPQLDSDGTYFVYSKLSVDRSHWQRGNTYTCSVSHEALHRHHTQKSLTQSPGK	1520 nM	11.3 nM
feline IgG1a mutant ID No. 268: S252F, S434H, Q311W (antibody, part only; not given: Variable domains, not shown: another chain or arm of the molecule) constant: ASTTAPSVFPLAPSCGTTSGATVALACLVLGYFPEPVTVSWNSGALTSGVHTFPAVLQASGLYSLSSMVTVPSSRWLSDTFTCNVAHPPSNTKVDKTVRKTDHPPGPKPCDCPKCPPPEMLGGPSIFIFPPKPKDTLFISRTPEVTCLVVDLGPDDSDVQITWFVDNTQVYTAKTSPREEQFNSTYRVVSVLPILHWDWLKGKEFKCKVNSKSLPSPIERTISKAKGQPHEPQVYVLPPAQEELSRNKVSVTCLIKSFHPPDIAVEWEITGQPEPENNYRTTPPQLDSDGTYFVYSKLSVDRSHWQRGNTYTCSVSHEALHHHHTQKSLTQSPGK	10700 nM	14.3 nM
feline IgG1a mutant ID No. 267: S252F, S434F, Q311W (antibody, part only; not given: Variable domains, not shown: another chain or arm of the molecule) constant: ASTTAPSVFPLAPSCGTTSGATVALACLVLGYFPEPVTVSWNSGALTSGVHTFPAVLQASGLYSLSSMVTVPSSRWLSDTFTCNVAHPPSNTKVDKTVRKTDHPPGPKPCDCPKCPPPEMLGGPSIFIFPPKPKDTLFISRTPEVTCLVVDLGPDDSDVQITWFVDNTQVYTAKTSPREEQFNSTYRVVSVLPILHWDWLKGKEFKCKVNSKSLPSPIERTISKAKGQPHEPQVYVLPPAQEELSRNKVSVTCLIKSFHPPDIAVEWEITGQPEPENNYRTTPPQLDSDGTYFVYSKLSVDRSHWQRGNTYTCSVSHEALHFHHTQKSLTQSPGK	4030 nM	4.15 nM
feline IgG1a mutant ID No. 272: S252R, S434F (antibody, part only; not given: variable domains, not shown: another chain or arm of the molecule) constant: ASTTAPSVFPLAPSCGTTSGATVALACLVLGYFPEPVTVSWNSGALTSGVHTFPAVLQASGLYSLSSMVTVPSSRWLSDTFTCNVAHPPSNTKVDKTVRKTDHPPGPKPCDCPKCPPPEMLGGPSIFIFPPKPKDTLRISRTPEVTCLVVDLGPDDSDVQITWFVDNTQVYTAKTSPREEQFNSTYRVVSVLPILHQDWLKGKEFKCKVNSKSLPSPIERTISKAKGQPHEPQVYVLPPAQEELSRNKVSVTCLIKSFHPPDIAVEWEITGQPEPENNYRTTPPQLDSDGTYFVYSKLSVDRSHWQRGNTYTCSVSHEALHFHHTQKSLTQSPGK	11900 nM	7.96 nM
feline IgG1a mutant ID No. 254: S428M, S434N (antibody, part only; not given: Variable domains, not shown: another chain or arm of the molecule) constant: ASTTAPSVFPLAPSCGTTSGATVALACLVLGYFPEPVTVSWNSGALTSGVHTFPAVLQASGLYSLSSMVTVPSSRWLSDTFTCNVAHPPSNTKVDKTVRKTDHPPGPKPCDCPKCPPPEMLGGPSIFIFPPKPKDTLSISRTPEVTCLVVDLGPDDSDVQITWFVDNTQVYTAKTSPREEQFNSTYRVVSVLPILHQDWLKGKEFKCKVNSKSLPSPIERTISKAKGQPHEPQVYVLPPAQEELSRNKVSVTCLIKSFHPPDIAVEWEITGQPEPENNYRTTPPQLDSDGTYFVYSKLSVDRSHWQRGNTYTCSVMHEALHNHHTQKSLTQSPGK	8.83 nM	10.6 nM
feline IgG1a mutant ID No. 274: S252R, S434H, Q311W (antibody, part only; not given: Variable domains, not shown: another chain or arm of the molecule) constant: ASTTAPSVFPLAPSCGTTSGATVALACLVLGYFPEPVTVSWNSGALTSGVHTFPAVLQASGLYSLSSMVTVPSSRWLSDTFTCNVAHPPSNTKVDKTVRKTDHPPGPKPCDCPKCPPPEMLGGPSIFIFPPKPKDTLRISRTPEVTCLVVDLGPDDSDVQITWFVDNTQVYTAKTSPREEQFNSTYRVVSVLPILHWDWLKGKEFKCKVNSKSLPSPIERTISKAKGQPHEPQVYVLPPAQEELSRNKVSVTCLIKSFHPPDIAVEWEITGQPEPENNYRTTPPQLDSDGTYFVYSKLSVDRSHWQRGNTYTCSVSHEALHHHHTQKSLTQSPGK	3850 nM	5.62 nM
feline IgG1a mutant ID No. 273: S252R, S434F, Q311W (antibody, part only; not given: Variable domains, not shown: another chain or arm of the molecule) constant: ASTTAPSVFPLAPSCGTTSGATVALACLVLGYFPEPVTVSWNSGALTSGVHTFPAVLQASGLYSLSSMVTVPSSRWLSDTFTCNVAHPPSNTKVDKTVRKTDHPPGPKPCDCPKCPPPEMLGGPSIFIFPPKPKDTLRISRTPEVTCLVVDLGPDDSDVQITWFVDNTQVYTAKTSPREEQFNSTYRVVSVLPILHWDWLKGKEFKCKVNSKSLPSPIERTISKAKGQPHEPQVYVLPPAQEELSRNKVSVTCLIKSFHPPDIAVEWEITGQPEPENNYRTTPPQLDSDGTYFVYSKLSVDRSHWQRGNTYTCSVSHEALHFHHTQKSLTQSPGK	4760 nM	4.77 nM
feline IgG1a mutant ID No. 256: S428M, S434W (antibody, part only; not given: variable domains and light chain, not shown: another chain or arm of the molecule) constant: ASTTAPSVFPLAPSCGTTSGATVALACLVLGYFPEPVTVSWNSGALTSGVHTFPAVLQASGLYSLSSMVTVPSSRWLSDTFTCNVAHPPSNTKVDKTVRKTDHPPGPKPCDCPKCPPPEMLGGPSIFIFPPKPKDTLSISRTPEVTCLVVDLGPDDSDVQITWFVDNTQVYTAKTSPREEQFNSTYRVVSVLPILHQDWLKGKEFKCKVNSKSLPSPIERTISKAKGQPHEPQVYVLPPAQEELSRNKVSVTCLIKSFHPPDIAVEWEITGQPEPENNYRTTPPQLDSDGTYFVYSKLSVDRSHWQRGNTYTCSVMHEALHWHHTQKSLTQSPGK	31.6 nM	0.193 nM
feline IgG1a mutant ID No. 271: S252F, S434Y, Q311W (antibody, part only; not given: Variable domains, not shown: another chain or arm of the molecule) constant: ASTTAPSVFPLAPSCGTTSGATVALACLVLGYFPEPVTVSWNSGALTSGVHTFPAVLQASGLYSLSSMVTVPSSRWLSDTFTCNVAHPPSNTKVDKTVRKTDHPPGPKPCDCPKCPPPEMLGGPSIFIFPPKPKDTLFISRTPEVTCLVVDLGPDDSDVQITWFVDNTQVYTAKTSPREEQFNSTYRVVSVLPILHWDWLKGKEFKCKVNSKSLPSPIERTISKAKGQPHEPQVYVLPPAQEELSRNKVSVTCLIKSFHPPDIAVEWEITGQPEPENNYRTTPPQLDSDGTYFVYSKLSVDRSHWQRGNTYTCSVSHEALHYHHTQKSLTQSPGK	6.21 nM	0.0969 nM
